According to publication PMC8528929:

B1: 12H2 (antibody, V domains shown)
VH: EVQLQESGPGLVKPSQSLFLTCTVTGYSITSDYAWNWIRQFPGNKLEWMGYITYSGSTSYNPSLKSRISITRDTSKNQFFLQLNSVTTEDTATYYCARGDGYFFPLDYWGQGTTLTVSS
VL: DIVMTQSPSSLSVSAGEKVTMSCKSSQSLLNSGNQKSYLAWYQQRPGQPPKLLIYGASTRESGVPDRFTGSGSGTDFTLTISSVQAEDLAVYYCQNDHSYPPTFGAGTKLELK
B2: 13I1 (antibody, V domains shown)
VH: EVQLQESGPGLVKPSQSLSLTCTVTGYSITSDYAWNWIRQFPGNKLEWMGYITYSGSTSYNPSLRSRISITRDTSKNQFFLQLNSVTSEDTATYYCARGDGYYFPLDYWGQGTTLTVSS
VL: DIVMTQSPSSLSVSAGEKVTMSCKSSQSLLNGGNQKSYLAWYQQKPGQPPKLLIYGASTRESGVPDRFTGSGSGTDFTLTISSVQAEDLAVYYCQNDHSYPPTFGAGTKLELK

Molecular target: biotinylated SARS-CoV-2 RBD (SARS-CoV-2) (UniProt P0DTC2)
Assay: flow cytometry on antigen-coated beads

| Binder | EC50 |
| --- | --- |
| B1 | 0.066 nM |
| B2 | 0.082 nM |
